Measured values published in US20170152307A1 (Janssen / Centocor, published 2017).
Read-outs that look alike come from different tables or passages of the source. Values belong to the binder of their own block, whether it stands above or below them. Where no end group is shown, it is not given here. The star is where a group is joined. Biotin = O=C1N[C@H]2[C@H](CS[C@H]2CCCCC(=O)*)N1

How the values were obtained:
[1] = molecular target: ptau 221-245 (pT231, pS238) (human); test: peptide ELISA, 1 ug/mL IgG
Protocol: (§1) Plates were coated in TBS overnight at 4° C. The following day, plates were washed five times with TB S/0.05% TWEEN® (TBS-T) and blocked with 150 IA of TBS-T plus 2.5% BSA (blocking buffer) for 2 hour. Tau peptides were captured on streptavidin-coated plates (Pierce) at a concentration of 0.43 μM in 100 μl of TBS. Tau peptides used to set up ELISA assays were the same used as baits in corresponding sorting experiment. Tau peptide-coated plates were then incubated at RT for 1.5 hours. All plates were then washed five times with TBS/0.05% TWEEN® and blocked with 150 μl and 300 μl (tau peptide plates only) of blocking buffer and incubated at RT for 2 hours. […] Primary antibodies were incubated for 2 hours at RT and washed five times in TBS-T. Finally, goat-anti human IgG Fab or goat anti-mouse HRP (Jackson Labs) was used at 1:2000 and 1:4000, respectively, and incubated for 1 hour at RT. Plates were washed five times in TBS-T and developed with SureBlue Reserve TMB Microwell Peroxidase Substrate (KPL). The reaction was halted by the addition of 50 μl and 100 μl (peptide plates) of TMB Stop Solution (KPL) and the absorbance at 450 nm was measured using an ELISA plate reader. Supernatants with the aforementioned binding activities were subsequently reconfirmed in an independent ELISA experiment.

ptau 228-245 (pS238) = ptau 228-245 (pS238) (human); test: peptide ELISA, 1 ug/mL IgG
Protocol: as §1

[2] = molecular target: ptau 225-245 (pS235, pS238) (human); test: peptide ELISA, 1 ug/mL IgG
Protocol: as §1

tau 52-71 (A62) = molecular target: T1, tau 52-71 (A62) (human, N-terminal biotin; not carried in the letters); test: alanine-scan peptide ELISA
T1 construct: E62A
T1 peptide: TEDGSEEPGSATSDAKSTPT
Protocol: (§2) Plates were washed five times with TBS-T followed by the addition of secondary antibody [goat Anti-Human IgG F(ab′)₂ (Jackson Labs) at 1:2000 dilution], diluted in TBS plus 0.25% BSA, and incubated at RT for 1 hour. Following incubation, plates were washed four times in TBS-T and developed with SureBlue Reserve TMB Microwell Peroxidase Substrate (KPL) for approximately 90 seconds. The reaction was immediately halted by the addition of TMB Stop Solution (KPL) and the absorbance at 450 nm was measured using an ELISA plate reader. Each experiment was conducted in triplicate across three different days. Reactivity was considered positive when values were equal to or higher than an OD of 0.4 in the ELISA assay. […] (−) for average of two O.D. 450 nm readings <0.3; (−/+) for >0.5 and <1.0; (+) for >1.0 and <1.5; (++) for >1.5. […] (−) for average of three O.D. 450 nm readings <0.3; (−/+) for >0.5 and <1.0; (+) for >1.0 and <1.5; (++) for >1.5.
(§3) To further characterize the specificity and amino acid contribution to binding of each of the recover mAbs, their reactivity to tau peptides with each position replaced with Alanine was tested by ELISA. […] (−) for average of two O.D. 450 nm readings <0.3; (−/+) for >0.5 and <1.0; (+) for >1.0 and <1.5; (++) for >1.5.

tau 52-71 (A65) = molecular target: T2, tau 52-71 (A65) (human, N-terminal biotin on the synthetic peptide; not carried in the letters); test: alanine-scan peptide ELISA
T2 construct: D65A
T2 peptide: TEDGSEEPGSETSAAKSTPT
Protocol: as §2, §3

tau 52-71 (A67) = molecular target: T3, tau 52-71 (A67) (human, N-terminal biotin on the synthetic peptide; not carried in the letters); test: alanine-scan peptide ELISA
T3 construct: K67A
T3 peptide: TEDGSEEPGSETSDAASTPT
Protocol: as §2, §3

tau 52-71 (A52) = molecular target: T4, tau 52-71 (A52) (human, N-terminal biotin, not carried by the letters); test: alanine-scan peptide ELISA, 1 ug/mL IgG
T4 construct: T52A
T4 peptide: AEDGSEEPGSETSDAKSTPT
Protocol: as §2, §3

tau 52-71 (A53) = molecular target: T5, tau 52-71 (A53) (human, N-terminal biotin, not carried by the letters); test: alanine-scan peptide ELISA, 1 ug/mL IgG
T5 construct: E53A
T5 peptide: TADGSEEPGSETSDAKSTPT
Protocol: as §2, §3

tau 52-71 (A54) = molecular target: T6, tau 52-71 (A54) (human, N-terminal biotin, not carried by the letters); test: alanine-scan peptide ELISA, 1 ug/mL IgG
T6 construct: D54A
T6 peptide: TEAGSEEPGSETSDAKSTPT
Protocol: as §2, §3

tau 52-71 (A55) = molecular target: T7, tau 52-71 (A55) (human, N-terminal biotin (all tau peptides were synthesized with an amino-terminal biotin group); not carried in the letters); test: alanine-scan peptide ELISA, 1 ug/mL IgG
T7 construct: G55A
T7 peptide: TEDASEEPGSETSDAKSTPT
Protocol: as §2, §3

tau 52-71 (A56) = molecular target: T8, tau 52-71 (A56) (human, N-terminal biotin; not carried in the letters); test: alanine-scan peptide ELISA, 1 ug/mL IgG
T8 construct: S56A
T8 peptide: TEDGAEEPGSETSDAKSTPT
Protocol: as §2, §3

tau 52-71 (A57) = molecular target: T9, tau 52-71 (A57) (human, N-terminal biotin; not carried in the letters); test: alanine-scan peptide ELISA, 1 ug/mL IgG
T9 construct: E57A
T9 peptide: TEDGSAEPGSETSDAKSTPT
Protocol: as §2, §3

tau 52-71 (A58) = molecular target: T10, tau 52-71 (A58) (human, N-terminal biotin; not carried in the letters); test: alanine-scan peptide ELISA, 1 ug/mL IgG
T10 construct: E58A
T10 peptide: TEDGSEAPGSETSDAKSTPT
Protocol: as §2, §3

tau 52-71 (A59) = molecular target: T11, tau 52-71 (A59) (human, N-terminal biotin; not carried in the letters); test: alanine-scan peptide ELISA, 1 ug/mL IgG
T11 construct: P59A
T11 peptide: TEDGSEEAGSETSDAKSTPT
Protocol: as §2, §3

tau 52-71 (A60) = molecular target: T12, tau 52-71 (A60) (human, N-terminal biotin; not carried in the letters); test: alanine-scan peptide ELISA, 1 ug/mL IgG
T12 construct: G60A
T12 peptide: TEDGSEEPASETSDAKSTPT
Protocol: as §2, §3

tau 52-71 (A61) = molecular target: T13, tau 52-71 (A61) (human, N-terminal biotin; not carried in the letters); test: alanine-scan peptide ELISA, 1 ug/mL IgG
T13 construct: S61A
T13 peptide: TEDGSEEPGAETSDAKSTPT
Protocol: as §2, §3

tau 52-71 (A63) = molecular target: T14, tau 52-71 (A63) (human, N-terminal biotin on the synthetic peptide; not carried in the letters); test: alanine-scan peptide ELISA, 1 ug/mL IgG
T14 construct: T63A
T14 peptide: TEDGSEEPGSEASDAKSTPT
Protocol: as §2, §3

tau 52-71 (A64) = molecular target: T15, tau 52-71 (A64) (human, N-terminal biotin on the synthetic peptide; not carried in the letters); test: alanine-scan peptide ELISA, 1 ug/mL IgG
T15 construct: S64A
T15 peptide: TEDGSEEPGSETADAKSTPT
Protocol: as §2, §3

tau 52-71 (A68) = molecular target: T16, tau 52-71 (A68) (human, N-terminal biotin on the synthetic peptide; not carried in the letters); test: alanine-scan peptide ELISA, 1 ug/mL IgG
T16 construct: S68A
T16 peptide: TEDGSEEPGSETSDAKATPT
Protocol: as §2, §3

tau 52-71 (A69) = molecular target: T17, tau 52-71 (A69) (human, N-terminal biotin on the synthetic peptide; not carried in the letters); test: alanine-scan peptide ELISA, 1 ug/mL IgG
T17 construct: T69A
T17 peptide: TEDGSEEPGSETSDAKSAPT
Protocol: as §2, §3

tau 52-71 (A70) = molecular target: T18, tau 52-71 (A70) (human, N-terminal biotin on the synthetic peptide; not carried in the letters); test: alanine-scan peptide ELISA, 1 ug/mL IgG
T18 construct: P70A
T18 peptide: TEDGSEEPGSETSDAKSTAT
Protocol: as §2, §3

tau 52-71 (A71) = molecular target: T19, tau 52-71 (A71) (human, N-terminal biotin on the synthetic peptide; not carried in the letters); test: alanine-scan peptide ELISA, 1 ug/mL IgG
T19 construct: T71A
T19 peptide: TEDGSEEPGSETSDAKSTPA
Protocol: as §2, §3

ptau 48-71 (p64) = molecular target: T20, ptau 48-71 (p64) (human); test: peptide ELISA, biotinylated peptide on streptavidin plate, IgG titrated (Example 14)
T20 construct: also called ptau 48-71 (Ser64)
Protocol: as §2
(§4) (−) for average of two O.D. 450 nm readings <0.3; (−/+) for >0.5 and <1.0; (+) for >1.0 and <1.5; (++) for >1.5.

tau 42-61 = molecular target: T21, tau 42-61 (human, N-terminal biotin, not carried by the letters); test: peptide ELISA, biotinylated overlapping peptide on streptavidin plate, IgG titrated (Example 9)
T21 peptide: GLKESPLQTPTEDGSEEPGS
Protocol: (§5) Briefly, 96-well streptavidin-binding plates (Thermo-Fisher) were coated with 2 μg/ml of tau peptides diluted in TBS and incubated overnight at 4° C. […] Plates were washed five times with TBS-T followed by the addition of secondary antibody [goat Anti-Human IgG F(ab′)₂ (Jackson Labs) at 1:2000 dilution], diluted in TBS plus 0.25% BSA, and incubated at RT for 1 hour. Following incubation, plates were washed four times in TBS-T and developed with SureBlue Reserve TMB Microwell Peroxidase Substrate (KPL) for approximately 90 seconds. The reaction was immediately halted by the addition of TMB Stop Solution (KPL) and the absorbance at 450 nm was measured using an ELISA plate reader. Each experiment was conducted in triplicate across three different days. Reactivity was considered positive when values were equal to or higher than an OD of 0.4 in the ELISA assay. […] (−) for average of two O.D. 450 nm readings <0.3; (−/+) for >0.5 and <1.0; (+) for >1.0 and <1.5; (++) for >1.5. […] (−) for average of three O.D. 450 nm readings <0.3; (−/+) for >0.5 and <1.0; (+) for >1.0 and <1.5; (++) for >1.5.

tau 62-81 = molecular target: T22, tau 62-81 (human, N-terminal biotin, not carried by the letters); test: as above
T22 peptide: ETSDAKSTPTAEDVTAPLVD
Protocol: as §5

tau 72-91 = molecular target: T23, tau 72-91 (human, N-terminal biotin, not carried by the letters); test: as above
T23 peptide: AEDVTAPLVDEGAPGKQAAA
Protocol: as §5

tau 82-103 = tau 82-103 (human, N-terminal biotin, not carried by the letters); test: as above
Protocol: as §5

ptau 404-421 = molecular target: T24, ptau 404-421 (human); test: peptide ELISA
T24 construct: also called ptau 404-421 p414
Protocol: as §5

ptau 406-423 = ptau 406-423 (human); test: peptide ELISA
Protocol: as §5

[3] = molecular target: ptau 406-429 (pS416, pS422) (human); test: peptide ELISA, 1 ug/mL IgG
ptau 404-429 = ptau 404-429 (human); test: peptide ELISA, 1 ug/mL IgG
ptau 412-429 = ptau 412-429 (human); test: peptide ELISA, 1 ug/mL IgG
ptau 412-434 = molecular target: T25, ptau 412-434 (human); test: peptide ELISA, 1 ug/mL IgG
T25 construct: also called ptau 412-434 p422, 427

ptau 299-323 p305, 316 = ptau 299-323 p305, 316 (human); test: peptide ELISA, biotinylated peptide on streptavidin plate, IgG titrated (Example 14)
Protocol: as §2, §4

tau 405-423 = molecular target: T26, tau 405-423 (human); test: peptide ELISA
T26 peptide: Biotin-PRHLSNVSSTGSIDMVDSP
Protocol: as §5

tau 409-428 = molecular target: T27, tau 409-428 (human, N-terminal biotin, not carried by the letters); test: peptide ELISA
T27 peptide: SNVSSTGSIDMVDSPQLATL
Protocol: as §5

[4] = molecular target: ptau 406-429 (pS416, pS422) (human); test: peptide ELISA, 1 ug/mL IgG; remark: listed apart in the source
Protocol: as §1

[5] = molecular target: ptau 406-429 (pS416, pS422) (human); test: peptide ELISA, biotinylated peptide on streptavidin plate, IgG titrated (Example 6)
Protocol: as §1

tau 389-441 = molecular target: T28, tau 389-441 (human, N-terminal biotin, not carried by the letters); test: as above
T28 peptide: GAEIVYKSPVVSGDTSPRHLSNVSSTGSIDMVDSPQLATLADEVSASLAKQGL
Protocol: as §1

Sequence of ptau 299-323 p305, 316 (human) (main, as listed by the source): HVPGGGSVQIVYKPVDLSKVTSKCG
Sequence of tau 82-103 (human, N-terminal biotin, not carried by the letters) (peptide, as listed by the source limits assumed): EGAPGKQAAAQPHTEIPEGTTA
T20 sequence (main, as listed by the source): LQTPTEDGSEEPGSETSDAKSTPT

OD450 [1]: > 1.5 od | OD450 (ptau 228-245 (pS238)): > 1.5 od | OD450 [2]: > 1.5 od
B1: CBTAU-24.1 (antibody, human IgG1, V domains shown)
VH: QVQLVQSGAEVKKPGASVKVSCTASGYTFTGYYLHWVRQAPGQGLEWMGWVNPRSGGTSYPPKFQGRVTMTRDTSINTAYMDLTWLTSDDTAVYYCAVGRIPDVTAFDIWGQGTPVTVSS
VL: DIQMTQSPDSLAVSLGERATINCKSSESLLYDSNNKNYLAWYQQKPGQPPKLLIYWASTRESGVPDRFSGSGSETDFTLTISSLQAEDVAVYHCQQYFSTPWTFGQGTKLEIK
notes: recombinant full-length human IgG1

binding result (tau 52-71 (A52)): binds | binding result (tau 52-71 (A53)): binds | binding result (tau 52-71 (A54)): binds | binding result (tau 52-71 (A55)): binds | binding result (tau 52-71 (A56)): binds | binding result (tau 52-71 (A57)): binds | binding result (tau 52-71 (A58)): binds | binding result (tau 52-71 (A59)): binds | binding result (tau 52-71 (A60)): binds | binding result (tau 52-71 (A61)): binds | binding result (tau 52-71 (A63)): binds | binding result (tau 52-71 (A64)): binds | binding result (tau 52-71 (A68)): binds | binding result (tau 52-71 (A69)): binds | binding result (tau 52-71 (A70)): binds | binding result (tau 52-71 (A71)): binds | EC50 (read off the curve) (ptau 48-71 (p64)): ~0.2 µg/mL | binding result (tau 42-61): no binding (tested: 5 µg/mL) | binding result (tau 62-81): no binding (tested: 5 µg/mL) | binding result (tau 72-91): no binding (tested: 5 µg/mL) | binding result (tau 82-103): no binding (tested: 5 µg/mL)
B2: CBTAU-28.1 (antibody, human IgG1, V domains shown)
VH: QVQLQQSGAEVKKPGESLKISCEASGYSFTNYWIGWVRQMPGKGLEWMGIIYPGDSDTRYSPPFQGQVTITADRSITTAYLEWSSLKASDTAMYYCARVGRPSKGGWFDPWGQGTLVTVSS
VL: DIQMTQSPDSLAVSLGERATINCESSQTLLYSSNEKNYLAWYQQKPGQPPKLLISWASTPESGVPDRFSGSGSGTSFTLTISSLQAEDVAVYYCQQYYNSPYTFGQGTRLEIK
notes: as for B1
binding result (tau 52-71 (A62)): no binding (tested: OD450 <0.3 at 1 ug/mL) | binding result (tau 52-71 (A65)): no binding (tested: OD450 <0.3 at 1 ug/mL) | binding result (tau 52-71 (A67)): no binding (tested: OD450 <0.3 at 1 ug/mL)

OD450 (ptau 404-421): < 0.3 od | OD450 (ptau 406-423): < 0.3 od | OD450 [3]: 0.5 to 1 od | OD450 (ptau 404-429): 0.5 to 1 od | OD450 (ptau 412-429): 0.5 to 1 od | OD450 (ptau 412-434): 0.5 to 1 od | EC50 (read off the curve) (ptau 299-323 p305, 316): ~0.01 µg/mL
B3: CBTAU-27.1 (antibody, human IgG1, V domains shown)
VH: QVQLVESGPEMRKPGESLKISCKTSGYIFSDYWTAWVRQLPGKGLQWMGIIYSGDSDTRYHPSVQGHVTMSTDSSLTTAYLQWSSLKASDTGIYYCARLDARVDAGWQLDSWGQGTLVTVSS
VL: DIQLTQSPDSLAVSLGERATINCKSSQSVFSRDNNKNYLAWYQHKSGQPPKLLFFWASSRESGVSDRFSGSGSGTDFTLTIDNLQAEDVALYYCQHYFNTPHNFGQGTKLEIK
notes: as for B1

OD450 [4]: > 1.5 od | EC50 (read off the curve) [5]: ~0.04 µg/mL | binding result (tau 389-441): no binding (tested: 5 µg/mL)
B4: CBTAU-22.1 (antibody, human IgG1, V domains shown)
VH: QVQLVQSGAEVKKPGAPVKVSCETSGYRFSDYNVHWVRQAPGQGPEWIGRISPNSGGTKYAQKFQGRVTMTRDMSMNTAYMELSGLRSDDTAVYYCVRGHCDGTTCSRAYWGQGTLVTVSS
VL: DVVMTQSPLSLPVTPGEPASISCRSSQSLLHRSGHKYLHWYLQRPGQSPQVLIYLGSNRASGVPDRFSGSGSGTDFTLKISRVEAEDVGLYYCMQTLQTPWTFGQGTKVEIK
notes: as for B1
binding result (tau 405-423): no binding (tested: OD450 <0.3 at 2 ug/mL) | binding result (tau 409-428): no binding (tested: OD450 <0.3 at 2 ug/mL)
